The Kd is the constant that tells how readily two partners part at equilibrium. The koff is the rate constant with which the complex falls apart. A word on the kon: it is the rate constant with which the complex forms.

This is an account of results in patent US20200306340A1 (ACCELERON PHARMA, published 2020).

The target of experiment [1] is T1, activin A (UniProt P08476 311-426).
T1 sequence (looked up): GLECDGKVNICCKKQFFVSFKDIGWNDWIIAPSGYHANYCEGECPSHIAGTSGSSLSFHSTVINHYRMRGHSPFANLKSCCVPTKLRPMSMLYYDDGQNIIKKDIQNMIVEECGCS
Briefly: cell-based or functional assay.

The target in experiment [2] is T2, GDF11 (UniProt O95390 299-407).
T2 sequence (looked up): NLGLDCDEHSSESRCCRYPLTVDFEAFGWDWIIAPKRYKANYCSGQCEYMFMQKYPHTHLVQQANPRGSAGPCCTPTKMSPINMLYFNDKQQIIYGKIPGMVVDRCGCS
In words: cell-based or functional assay.

The target in a further experiment is T3, BMP9 (UniProt Q9UK05 320-429).
T3 construct: also called GDF2
T3 sequence (looked up): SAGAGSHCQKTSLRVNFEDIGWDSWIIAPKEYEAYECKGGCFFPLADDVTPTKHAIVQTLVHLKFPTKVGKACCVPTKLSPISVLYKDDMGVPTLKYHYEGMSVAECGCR
Briefly: Biacore SPR; receptor-Fc captured by anti-Fc antibody, ligand injected; transient interaction. On the technique in general: SPR reads the build-up and loss of mass on a sensor chip optically.

For experiment [3], the target named is T1, activin A. In words: Biacore SPR; receptor-Fc captured by anti-Fc antibody, ligand injected. The procedure:
(§1) Ligands were injected and allowed to flow over the captured receptor protein.

Experiment [4] has as its target T2, GDF11. The experiment is described as above. How it is done:
as §1

The next experiment concerns the target T4, BMP6 (UniProt P22004 382-513, limits assumed).
T4 sequence (looked up): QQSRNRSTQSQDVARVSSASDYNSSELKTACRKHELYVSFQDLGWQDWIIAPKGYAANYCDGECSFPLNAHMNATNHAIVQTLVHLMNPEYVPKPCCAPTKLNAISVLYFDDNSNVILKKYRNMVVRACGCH
The description is as above. How it is done:
as §1

The next experiment deals with T5, BMP10 (UniProt O95393 317-424).
T5 sequence (looked up): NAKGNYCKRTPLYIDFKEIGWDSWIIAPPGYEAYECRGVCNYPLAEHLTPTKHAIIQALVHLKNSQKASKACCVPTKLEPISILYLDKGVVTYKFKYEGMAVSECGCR
The description is as above. How it is done: as §1

The target of the next experiment is T6, GDF3 (UniProt Q9NR23 251-364).
T6 sequence (looked up): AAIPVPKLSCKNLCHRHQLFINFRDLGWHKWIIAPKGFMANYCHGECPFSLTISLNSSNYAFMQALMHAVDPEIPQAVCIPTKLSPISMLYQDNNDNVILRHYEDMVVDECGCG
Described as above. How it is done:
as §1

In the next experiment the target is T7, GDF8 (UniProt O14793 267-375).
T7 construct: also called myostatin
T7 sequence (looked up): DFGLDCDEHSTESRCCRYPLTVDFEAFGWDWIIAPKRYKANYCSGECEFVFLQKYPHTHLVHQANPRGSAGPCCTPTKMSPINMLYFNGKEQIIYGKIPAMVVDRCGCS
The description is as above. The procedure:
as §1

For the next experiment, the target named is T8, activin B (UniProt P09529 293-407).
T8 sequence (looked up): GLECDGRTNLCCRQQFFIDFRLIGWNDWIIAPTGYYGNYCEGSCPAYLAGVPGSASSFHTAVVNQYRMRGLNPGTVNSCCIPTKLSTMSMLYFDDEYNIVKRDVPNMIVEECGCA
The experiment is described as above. How it is done: as §1

In the experiment with activin A [1], “ActRIIB-Fc A64 (20-134) (from UniProt Q13705 20-134) (Fc fusion)” yielded an Activin Inhibition Activity, KI (A-204 CAGA12 luciferase reporter gene assay) of 1000 nM. The GDF11 Inhibition Activity, KI (A-204 CAGA12 luciferase reporter gene assay) with GDF11 [2] came to 1000 nM.

B1: ALK4-Fc:ActRIIB-Fc heterodimer (Fc fusion)
chain 1: SGPRGVQALLCACTSCLQANYTCETDGACMVSIFNLDGMEHHVRTCIPKVELVPAGKPFYCLSSEDLRNTHCCYTDYCNRIDLRVPSGHLKEPEHPSMWGPVE
chain 2: GRGEAETRECIYYNANWELERTNQSGLERCEGEQDKRLHCYASWRNSSGTIELVKKGCWLDDFNCYDRQECVATEENPQVYFCCCEGNFCNERFTHLPEAGGPEVTYEPPPTAPT
Consider B1, for which the Kd with BMP9 is 3.4 nM; in the experiment with activin A [3] it was 0.012 nM; with GDF11 [4] it was 0.003 nM; with BMP6 it was 2.7 nM; in the experiment with BMP10 it was 0.074 nM; in the experiment with GDF3, 4.9 nM. In addition, the Kd with GDF8 is 0.55 nM; with activin B it was 0.006 nM. The koff with activin A [3] came out at 0.00015 s⁻¹; in the experiment with GDF11 [4], 0.00011 s⁻¹; in the experiment with BMP6, 0.0055 s⁻¹; with BMP10, 0.0041 s⁻¹; with GDF3, 0.017 s⁻¹; in the experiment with GDF8, 0.00021 s⁻¹. Further, the koff with activin B worked out at 4e-05 s⁻¹. In addition, the kon in the experiment with activin A [3] amounted to 1.3e+07 M⁻¹ s⁻¹; with GDF11 [4], 3.8e+07 M⁻¹ s⁻¹; with BMP6, 2e+06 M⁻¹ s⁻¹; in the experiment with BMP10, 5.6e+07 M⁻¹ s⁻¹; in the experiment with GDF3, 3.4e+06 M⁻¹ s⁻¹; with GDF8 it was 390000 M⁻¹ s⁻¹. Moreover, in the experiment with activin B, the kon was determined as 7.1e+06 M⁻¹ s⁻¹.
